This series concerns CCn1c(=N[N]c2sc3cc(S(=O)(=O)O)ccc3[n+]2CC)sc2cc(S(=O)(=O)O)ccc21. The experiment in a line: purified protein. To be noted: pH 4.0; 30.0 °C.
Consider AmPDH2 (Macropsalliota meleagris), for which the Km (as a rule, the substrate concentration at which the rate is half of its maximum) was 109 ± 10 µM and the kcat/Km (in general, the second-order rate constant that governs catalysis at low substrate concentration) was found to be 38900 M⁻¹ s⁻¹.

As to AmPDH3 (Macropsalliota meleagris), the Km was 13.2 ± 1.2 µM and the kcat/Km came to 532000 M⁻¹ s⁻¹.

Regarding AmPDH1 (Macropsalliota meleagris), the Km was 79.1 ± 9 µM and the kcat/Km amounted to 94600 M⁻¹ s⁻¹.

For the origin of these results see paper PMC5352738, “Characterization of three pyranose dehydrogenase isoforms from the litter-decomposing basidiomycete Leucoagaricus meleagris (syn. Agaricus meleagris)” (Applied Microbiology and Biotechnology, 2016).
